Assay results published in IntAct's records for PubMed 9687513.

B1: Early protein (Human adenovirus C serotype 5 (HAdV-5)), P03255-2 (parent)
chain: MRHIICHGGVITEEMAASLLDQLIEEVLADNLPPPSHFEPPTLHELYDLDVTAPEDPNEEAVSQIFPDSVMLAVQEGIDLLTFPPAPGSPEPPHLSRQPEQPEQRALGPVSMPNLVPEVIDLTCHEAGFPPSDDEDEEGPVSEPEPEPEPEPEPARPTRRPKMAPAILRRPTSPVSRECNSSTDSCDSGPSNTPPEIHPVVPLCPIKPVAVRVGGRRQAVECIEDLLNEPGQPLDLSCKRPRP

Variants of: B1
Conditions: with kat2b_human KAT2B

| Variant | effect of a mutation on the interaction |
| --- | --- |
| E55A;D56A;P57A;N58A;E59A;E60A | decreasing interaction |
